B1: Myocardin-related transcription factor A, residues 341 to 383; numbered along this chain, Q969V6 (parent)
chain: GALPANLDDMKVAELKQELKLRSLPVSGTKTELIERLRAYQDQ

Variants of: B1
Assay: abundance fitness (aPCA) (normalised: wild type 0, dead -1); higher = more abundant; growth selection in yeast, the domain comes from the species named
Conditions: Homo sapiens

Abundance fitness, by site and new letter:
Q17: V -0.207; D -0.247; G -0.153; S -0.036; T -0.134; E 0.048; R -0.049; M 0.079; Y -0.263; F -0.234; W -0.595; C -0.593; P -0.794; L -0.306; A 0.015; K -0.283
R22: T -0.301; M -0.229; F -0.816; P -0.561; C -0.178; N -0.47; K -0.318; H -0.232; G -0.54; A -0.099; W -0.572; L -0.223; D -0.327; V -0.277; S -0.561; Q -0.079; E -0.163
L33: N 0.592; G -0.224; Q -0.128; A -0.261; R -0.617; V -0.249; T -0.283; M 0.046; S -0.067; K -0.315; P -0.403
E18: A -0.007; M -0.274; G -0.701; Q -0.292; L -0.35; I -0.906; H -0.432; V -0.15; C -0.2; T -0.5; R -0.593; S -0.28; W -0.606; P -1.33; K -0.365
K16: Q 0.186; T -0.036; M 0.169; V -0.143; R -0.159; S 0.006; Y -0.131; P -0.587; N -0.384
L21: C -0.229; G -0.067; V -0.004; R 0.057; Q 0.061; A 0.038; T 0.094; F -0.177; P -0.593; S -0.089; N -0.08; W -0.283; H 0.003; D 0.041; E 0.098
L24: V -0.342; H -0.979; W -0.751; Q -0.07; R -0.436; G -0.471; D -0.835; I -0.425; Y -1.02; P -0.639; M -0.091; C -0.385; A -0.27
R38: A 0.2; G -0.047; F -0.626; C -0.301; E 0.074; I -0.086; H -0.201; D -0.588
I34: Y 0.017; W -0.363; E -0.151; M -0.144; K -0.031; L -0.146; D -0.546; H -0.186; G -0.305; C -0.139; R -0.146; V -0.21; Q 0.116; T -0.151; A -0.187
S27: W -0.115; E 0.043; D 0.11; P -0.08; Q -0.424; A 0.181; K -0.196; G -0.012; R -0.186; M -0.286; V -0.251; Y -0.136; T -0.196; L -0.376; C -0.201
V26: L 0.229; K -0.195; M -0.032; S -0.035; R -0.129; C -0.223; P 0.191; W -0.538; Y -0.031; F -0.033; G -0.038; E 0.168; N -0.466; Q 0.155; H -0.265; A 0.18
L37: V -0.3; W -0.403; K -0.455; G -0.303; Q -0.631; M -0.165; T -0.416; E -0.504; D -0.298; N -0.327; C -0.404; S -0.419; R -0.462; A -0.435
T31: S -0.061; K -0.141; D 0.005; E 0.085; N -0.332; I 0.092; A 0.098; M -0.089; L -0.145; G -0.011; P -0.074; W -0.246; H -0.129; Y -0.193; Q -0.138; R 0.012; V -0.035
E35: T -0.173; I -0.174; K 0.035; Y 0.166; S 0.109; A 0.23; F -0.242; W -0.19; L 0.026; P -0.505; Q 0.398; V -0.171; R -0.047; G 0.041
L19: K -0.8; C -0.083; Q -0.408; T -0.391; E -0.55; D -0.621; G -0.536; R -0.812; V -0.286; H -0.852; W -0.911; A -0.048; S -0.237; M 0.178
K30: A -0.403; H -0.217; F -0.463; W -0.6; V -0.509; Q -0.092; S -0.231; R 0.024; P -0.242; G -0.494; M -0.332; D -0.478; N -0.343; T -0.091; E -0.269; I -0.158
K20: T -0.145; F -0.153; L 0.002; R 0.011; V -0.041; E 0.145; D -0.061; Y 0.657; W -0.372; S 0.05; H -0.342; P -0.453; A -0.003; N -0.137; C 0.309; M 0.044
T29: E 0.009; D -0.147; L -0.376; H -0.142; R -0.196; V -0.26; M -0.447; I -0.362; Y -0.44; C -0.198; Q 0.157; W -0.601; K -0.092; S -0.084
G28: E -0.628; T -1.56; K -0.862; D -0.758; A -1.02; W -1.03; M -0.957; S -0.85; Y -0.626; C -0.608; Q -0.659; P -1.13; H -1.18; L -1.06; V -1.38
P25: Y -0.293; S -0.165; Q -0.167; D -0.197; G -0.186; A -0.263; R -0.304; K -0.135; E -0.055; V -0.358; F -0.963; I 0.319; H -0.875; W -0.808; L -0.542
S23: I -0.307; H 0.176; R -0.036; Y 0.038; K 0.142; M -0.162; W -0.256; Q -0.101; G 0.291; L -0.018; D 0.073; V -0.22; E 0.092; C 0.052; A 0.018; N 0.008; P -0.834; F -0.205
E32: T -0.143; K -0.198; I -0.149; P -0.533; Q -0.038; V -0.093; G -0.606; L -0.472; C -0.17; H -0.375; W -1.15; R -0.319; N -0.357; M -0.239; A -0.053; Y -0.669
R36: T -0.113; W -0.73; K -0.234; I -0.728; V -0.339; S -0.291; L -0.416; E -0.529; Q -0.201; N -0.356; M -0.395; C -0.128; A -0.128; P -0.066; G -0.188
